We go through ten molecules from patent US12240882B2, “Fusion proteins comprising an engineered knottin peptide and uses thereof” (The Board of Trustees of the Leland Stanford Junior …, priority 2010, dated 2025).

Where a chain is given by its changes, count along the chain named. Numbers in names are those of the source. Entries after “also recorded” stand apart in the source; their conditions may differ. Ends that are not written are not given here.

One data set has as its target T1, Met receptor (Homo sapiens, UniProt P08581).
T1 construct: PC3 cells express medium levels of the αvβ3 integrin and Met; endogenous in cells; host or cells: PC3 prostate cancer cells
Description: Met receptor phosphorylation assay in PC3 cells. The data set is classed as cell-based. The note with it: 0.3 nM HGF, Western blot. The protocol: A Met receptor phosphorylation assay was performed in PC3 (prostate cancer cells). Met receptor phosphorylation was assayed by Western blot after stimulation with 0.3 nM HGF. […] (Note: PC3 cells express medium levels of the αvβ3 integrin and Met, and low levels of the α5β1 integrin).
(A western blot detects proteins with antibodies after separation by electrophoresis.)

The subject of a further data set is U87MG cells. Description: Binding of AgRP mutant 7A to U87MG cells. The conditions noted are these: read-out: KD against U87MG cells. The source says: (§1) The αvβ3 integrin receptor is over-expressed on many solid tumor cells making it an important cancer target. The Agouti related protein (AgRP), a cystine-knot peptide, contains four disulfide bonds and four solvent-exposed loops. It was engineered to target αvβ3 integrin receptors with pM binding affinity.

A further data set deals with HUVECs. The experiment in a line: HUVEC proliferation assay stimulated with HGF. The note with it: 0.5 nM HGF.
For the next data set, the system named is K562-αvβ3 cells. The experiment in a line: Binding of AgRP mutant 7A to K562-αvβ3 cells. The conditions noted are these: read-out: KD against K562-αvβ3 cells.
Source text: as §1

The target of another data set is αvβ3 integrin (Homo sapiens, UniProt P05106+P06756). Description: cRGD competition of EETI 2.5D-Axl binding to K562-αvβ3 cells.
For data set [1], the system named is human umbilical vein endothelial cells (HUVECs). The experiment in a line: HUVEC cell binding assay of knottin-NK1 fusions. The conditions noted are these: read-out: binding affinity (KD) towards HUVECs. An excerpt: HUVECs express medium levels of the αvβ3, αvβ5 integrins, the Met receptor, and a high level of the […] integrin.
The next data set addresses human Met-Fc (Homo sapiens, UniProt P08581). The experiment in a line: Dual receptor direct binding assay on K562-αvβ3 cells. The note with it: Met-Fc 220 nM, proteins 2 or 20 nM. The method, then: In this experiment, a mixture of soluble Alexa-488 labeled human Met-Fc (220 nM) and the mono-specific and the multi-specific proteins (2 or 20 nM) were added to K562-αvβ3 cells. Binding was detected by flow cytometry.

Data set [2] can be described thus: Serum stability, Western Blot. The note with it: 40% human serum, 37° C., 7 days. Format: in vitro ADME. The protocol: Serum stability of AgRp7A-M2.2(D127A) and EETI2.5F-M2.2(D127A) was shown when the proteins were incubated with 40% human serum at 37° C. for over several days. Samples were analyzed by Western Blot and detected with an antibody against the FLAG epitope tag.

Data set [3] has as its target T2, Gas6 (Homo sapiens, UniProt Q14393).
T2 sequence (Q14393 31-678): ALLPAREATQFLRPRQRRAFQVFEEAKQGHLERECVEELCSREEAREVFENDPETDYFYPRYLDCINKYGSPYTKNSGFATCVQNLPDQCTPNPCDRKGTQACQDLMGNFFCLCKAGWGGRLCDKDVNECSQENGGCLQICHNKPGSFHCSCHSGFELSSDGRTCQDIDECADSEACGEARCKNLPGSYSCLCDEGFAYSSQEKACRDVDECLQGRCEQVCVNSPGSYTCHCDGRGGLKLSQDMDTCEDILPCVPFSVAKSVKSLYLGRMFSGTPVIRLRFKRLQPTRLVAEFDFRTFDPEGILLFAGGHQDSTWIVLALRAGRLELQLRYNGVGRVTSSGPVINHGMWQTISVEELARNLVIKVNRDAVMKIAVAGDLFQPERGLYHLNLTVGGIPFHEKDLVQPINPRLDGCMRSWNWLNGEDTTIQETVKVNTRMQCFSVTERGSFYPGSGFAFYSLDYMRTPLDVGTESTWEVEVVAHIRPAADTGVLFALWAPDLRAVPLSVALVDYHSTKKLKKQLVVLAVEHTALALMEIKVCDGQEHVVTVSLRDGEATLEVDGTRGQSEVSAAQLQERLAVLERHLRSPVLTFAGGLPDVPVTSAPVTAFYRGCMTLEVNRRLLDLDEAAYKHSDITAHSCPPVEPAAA
Description: Yeast surface display equilibrium binding to soluble Gas6. Further details: purchased R&D Systems.

Data set [4] concerns the target T2, Gas6. The experiment in a line: Equilibrium binding of engineered Axl Ig1 clones to Gas6. The note with it: binding to Gas6, versus wild-type Axl Ig1.
Data set [5] is described as follows: Melting temperature of engineered Axl Ig1 clone. The conditions noted are these: versus wild-type Axl Ig1.

Take “AgRP mutant, SEQ ID NO: 36 GCVRLHESCLGQQVPCCDPAATCYCSGRGDNDLVCYCR (ends and bridges not checked; cysteine pairing not given here) [AgRp7A]”: the “inhibition of Met phosphorylation” value with Met receptor is on record as “did not show inhibition”. The Kd (as a rule, a measure of binding affinity in units of concentration) with U87MG cells was 0.78 nM; in the data set with K562-αvβ3 cells it was 0.89 nM. Moreover, in the data set with HUVECs, the “inhibitory effect on HUVEC proliferation” value is “little inhibitory effect”.
In the case of cRGD [reference compound], the “binding of EETI 2.5D-Axl to K562-αvβ3 cells with molar excess of cRGD” value at αvβ3 integrin is reported as “inhibits the binding”.
For the molecule “EETI RGD mutant binding αvβ3, αvβ5, α5β1, SEQ ID NO: 33 GCPRPRGDNPPLTCKQDSDCLAGCVCGPNGFCG (ends and bridges not checked; cysteine pairing not given here) [EETI2.5F]”, in the data set with HUVECs, the “inhibitory effect on HUVEC proliferation” value is “good inhibition”. Besides, the “inhibition of HUVEC proliferation” value in the data set on HUVECs (1 μM, cells alone=90% inhibition) is 70%.

B1: EETI2.5F-M2.2(D127A): EETI 2.5F knottin fused to NK1 fragment of HGF (M2.2 (D127A)), SEQ ID NO: 89 (protein)
chain: DYKDDDDKPRGCPRPRGDNPPLTCSQDSDCLAGCVCGPNGFCGYAEGQRKRRNTIHEFKKSAKTTLIKIDPALKIKTEKVNTADQCANRCTRNKGLPFTCKAFVFDKARKRCLWFPFNSMSSGVKKEFGHEFDLYENKDYIRACIIGNGRSYRGTVSITKSGIKCQPWSSMIPHEHSFLPSSYRGEDLRENYCRNPRGEEGGPWCFTSDPEVRYEVCDIPQCSEVETRHHHHHH
Regarding B1, the “inhibitory effect on HUVEC proliferation” value in the data set with HUVECs is “higher inhibitory effects”. Moreover, in data set [1], the Kd came to 4.7 ± 0.6 nM. For the same molecule, in the data set with human Met-Fc, the “simultaneous binding to soluble Met-Fc and αvβ3 integrin on cells” value (“simultaneous binding” for short) is on record as “able to bind to soluble Met-Fc”. Moreover, the “amount of intact fusion protein in serum” value in data set [2] is “No significant decrease”.

B2: EETI2.5F-M2.2: EETI 2.5F knottin fused to NK1 fragment of HGF (M2.2), SEQ ID NO: 88 (protein)
chain: B1 chain with A143D
On to B2, for which, in the data set with human Met-Fc, the “simultaneous binding” value was “able to bind to soluble Met-Fc”.

B3: Wt EETI-Axl: Wild-type EETI-II fused to the Axl Ig1 N-terminus (protein)
chain: GCPRILMRCKQDSDCLAGCVCGPNGFCGSRGTQAEESPFVGNPGNITGARGLTGTLRCQLQVQGEPPEVHWLRDGQILELADSTQTQVPLGEDEQDDWIVVSQLRITSLQLSDTGQYQCLVFLGHQTFVSQPGYVGLEGLP
Turning to B3, the “affinity / binding to Gas6” value in the data set with Gas6 [3] was “same affinity as wild-type Axl”.

B4: AgRp7A-M2.2(D127A): AgRP 7A knottin fused to NK1 fragment of HGF (M2.2 (D127A)), SEQ ID NO: 86 (protein)
chain: DYKDDDDKPRGCVRLHESCLGQQVPCCDPAATCYCSGRGDNDLVCYCRYAEGQRKRRNTIHEFKKSAKTTLIKIDPALKIKTEKVNTADQCANRCTRNKGLPFTCKAFVFDKARKRCLWFPFNSMSSGVKKEFGHEFDLYENKDYIRACIIGNGRSYRGTVSITKSGIKCQPWSSMIPHEHSFLPSSYRGEDLRENYCRNPRGEEGGPWCFTSDPEVRYEVCDIPQCSEVETRHHHHHH
For B4, in the data set with HUVECs, the “inhibitory effect on HUVEC proliferation” value is listed as “higher inhibitory effects”. Besides, in [1], the Kd is 9.4 ± 1 nM. Besides, the “simultaneous binding” value with human Met-Fc is “able to bind to soluble Met-Fc”. For the same molecule, the “amount of intact fusion protein in serum” value in data set [2] is recorded as “No significant decrease”.

B5: AgRp7A-Aras4: AgRP 7A knottin fused to NK1 fragment of HGF (Aras4), SEQ ID NO: 66 (protein)
chain: B4 chain with R54G, K79R, V85A, N98S, D144A, A148D, N153R, S156N, S175A, F211Y
Regarding B5, the “inhibition of Met phosphorylation” value with Met receptor was “Dose dependent decreases; also recorded: slightly higher inhibitory effects”.

B6: AgRp7A-M2.2: AgRP 7A knottin fused to NK1 fragment of HGF (M2.2), SEQ ID NO: 85 (protein)
chain: B4 chain with A148D
As to B6, the “simultaneous binding” value with human Met-Fc was “able to bind to soluble Met-Fc”.

B7: Axl S6-1: engineered Axl Ig1, G32S, D87G, V92A, G127R, SEQ ID NO: 62 (protein)
chain: APRGTQAEESPFVSNPGNITGARGLTGTLRCQLQVQGEPPEVHWLRDGQILELADSTQTQVPLGEDEQGDWIVASQLRITSLQLSDTGQYQCLVFLGHQTFVSQPGYVRLEGLP
In the case of B7, in the data set with Gas6 [4], the “fold improvement in equilibrium binding over wild-type” value came out at 20 fold. Moreover, the “improvement in melting temperature over wild-type” value in data set [5] came to 13 °C.
